In patent US20080280833A1 (published 2008):

Target: αvβ3 integrin on rat smooth muscle cells (RSMC) (rat)
Experiment: cell-based or functional assay

Binder	IC50 of inhibition of VN-induced migration of RSMC (Boyden chamber chemotaxis) [pM]	stimulation of RSMC migration (Boyden chamber chemotaxis) [fold]
IQEGAAGRPKDDR [peptide D2A-Ala (D2A with the two glutamic acids of GEEG changed into alanines)]	0.01 to 0.02	
IQEGEEGRPKDDR [peptide D2A, synthetic peptide of domain 2 of human uPAR (aa130-142)]		3
